From paper PMC3115021, “Dynamics of Cdk1 Substrate Specificity during the Cell Cycle” (Molecular Cell, 2011)

Key:
Assay in all cases: Quantitative phosphorylation assay of T33-Sic1ΔC constructs and recombinant substrates
Type in all cases: biochemical
Settings in all cases: Table S2; purified protein substrate; relative values, not divided by [S]
Clb2hpm-Cdk1 = molecular target: T1, Clb2hpm-Cdk1 (Saccharomyces cerevisiae, UniProt P00546)
T1 construct: made in house; host or cells: S. cerevisiae strain DOM0964 (gal-CLB2hpm-TAP, sic1 deleted); Cks1 from bacteria
T1 sequence (P00546 2-298 limits assumed): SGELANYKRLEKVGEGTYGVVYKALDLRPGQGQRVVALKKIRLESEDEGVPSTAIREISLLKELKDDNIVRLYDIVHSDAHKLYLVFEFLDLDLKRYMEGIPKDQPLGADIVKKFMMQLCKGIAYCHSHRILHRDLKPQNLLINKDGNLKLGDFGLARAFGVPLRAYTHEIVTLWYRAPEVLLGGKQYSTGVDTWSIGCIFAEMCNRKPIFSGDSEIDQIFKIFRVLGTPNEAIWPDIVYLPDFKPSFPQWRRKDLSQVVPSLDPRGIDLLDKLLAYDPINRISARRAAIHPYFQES
How it was run: (§1)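 Yeast cyclin-Cdk1 complexes (1–10 nM, TAP-purified) phosphorylated 6His-T33-Sic1ΔC (other S/T-P sites mutated to Ala-Ala) or recombinant substrates at 0.5–2 μM, below KM, with 32P-γ-ATP. Initial velocities (≤10% turnover) from two or more time points, SDS-PAGE stopped; relative kcat/KM from v0 ratios.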

Clb5hpm-Cdk1 = molecular target: T2, Clb5hpm-Cdk1 (Saccharomyces cerevisiae, UniProt P00546)
T2 construct: made in house; host or cells: S. cerevisiae strain DOM0963 (gal-CLB5hpm-TAP, sic1 deleted); Cks1 from bacteria
T2 sequence (P00546 2-298 limits assumed): as above
How it was run: as §1

Clb3hpm-Cdk1 = molecular target: T3, Clb3hpm-Cdk1 (Saccharomyces cerevisiae, UniProt P00546+P24870)
T3 construct: made in house; host or cells: S. cerevisiae strain MK0168 (gal-CLB3hpm-TAP, sic1 deleted); Cks1 from bacteria
How it was run: as §1

Clb3-Cdk1 = molecular target: T4, Clb3-Cdk1 (Saccharomyces cerevisiae, UniProt P00546+P24870)
T4 construct: We purified the four cyclin-Cdk1 complexes from yeast; made in house; host or cells: S. cerevisiae strain DOM0957 (gal-CLB3-TAP, sic1 deleted); Cks1 from bacteria
T4 sequence (P00546 2-298 limits assumed): as above
T4 sequence (P24870 whole entry partner): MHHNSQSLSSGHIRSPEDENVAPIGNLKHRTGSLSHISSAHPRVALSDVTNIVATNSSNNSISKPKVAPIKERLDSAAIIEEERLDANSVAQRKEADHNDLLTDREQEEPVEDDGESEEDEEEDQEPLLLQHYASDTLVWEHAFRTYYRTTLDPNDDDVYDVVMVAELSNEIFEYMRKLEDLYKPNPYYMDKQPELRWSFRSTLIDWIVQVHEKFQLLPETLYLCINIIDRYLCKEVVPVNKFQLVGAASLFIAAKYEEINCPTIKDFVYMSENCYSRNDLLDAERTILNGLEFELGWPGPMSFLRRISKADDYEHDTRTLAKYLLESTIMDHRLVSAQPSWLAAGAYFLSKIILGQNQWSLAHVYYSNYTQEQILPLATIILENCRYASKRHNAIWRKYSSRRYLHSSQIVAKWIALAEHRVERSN
T4 sequence (P20486 whole entry partner): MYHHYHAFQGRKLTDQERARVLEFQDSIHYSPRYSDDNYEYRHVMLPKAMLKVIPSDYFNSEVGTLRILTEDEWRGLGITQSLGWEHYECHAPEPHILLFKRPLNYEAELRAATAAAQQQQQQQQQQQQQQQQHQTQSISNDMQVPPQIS

Clb5-Cdk1 = molecular target: T5, Clb5-Cdk1 (Saccharomyces cerevisiae, UniProt P00546+P30283)
T5 construct: We purified the four cyclin-Cdk1 complexes from yeast; made in house; host or cells: S. cerevisiae strain DOM0076 (gal-CLB5-TAP, sic1 deleted); Cks1 from bacteria
T5 sequence (P00546 2-298 limits assumed): as the sequence (P00546 2-298 limits assumed) above
T5 sequence (P30283 whole entry partner): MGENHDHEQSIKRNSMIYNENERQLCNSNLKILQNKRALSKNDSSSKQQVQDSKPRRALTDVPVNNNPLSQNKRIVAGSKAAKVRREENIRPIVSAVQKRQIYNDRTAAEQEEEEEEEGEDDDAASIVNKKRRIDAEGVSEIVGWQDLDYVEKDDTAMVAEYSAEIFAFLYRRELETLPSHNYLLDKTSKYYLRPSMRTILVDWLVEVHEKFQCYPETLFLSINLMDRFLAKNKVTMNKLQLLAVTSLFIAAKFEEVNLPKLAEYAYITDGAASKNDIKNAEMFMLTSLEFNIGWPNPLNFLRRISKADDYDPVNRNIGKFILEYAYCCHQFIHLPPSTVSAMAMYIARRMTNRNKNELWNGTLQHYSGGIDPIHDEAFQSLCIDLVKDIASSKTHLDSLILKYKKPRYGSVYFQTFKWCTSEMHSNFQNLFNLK
T5 sequence (P20486 whole entry partner): as the sequence (P20486 whole entry partner) above

Clb2-Cdk1 = molecular target: T6, Clb2-Cdk1 (Saccharomyces cerevisiae, UniProt P00546+P24869)
T6 construct: We purified the four cyclin-Cdk1 complexes from yeast; made in house; host or cells: S. cerevisiae strain DOM0077 (gal-CLB2-TAP, sic1 deleted); Cks1 from bacteria
T6 sequence (P00546 2-298 limits assumed): as the sequence (P00546 2-298 limits assumed) above
T6 sequence (P24869 2-491 partner limits assumed): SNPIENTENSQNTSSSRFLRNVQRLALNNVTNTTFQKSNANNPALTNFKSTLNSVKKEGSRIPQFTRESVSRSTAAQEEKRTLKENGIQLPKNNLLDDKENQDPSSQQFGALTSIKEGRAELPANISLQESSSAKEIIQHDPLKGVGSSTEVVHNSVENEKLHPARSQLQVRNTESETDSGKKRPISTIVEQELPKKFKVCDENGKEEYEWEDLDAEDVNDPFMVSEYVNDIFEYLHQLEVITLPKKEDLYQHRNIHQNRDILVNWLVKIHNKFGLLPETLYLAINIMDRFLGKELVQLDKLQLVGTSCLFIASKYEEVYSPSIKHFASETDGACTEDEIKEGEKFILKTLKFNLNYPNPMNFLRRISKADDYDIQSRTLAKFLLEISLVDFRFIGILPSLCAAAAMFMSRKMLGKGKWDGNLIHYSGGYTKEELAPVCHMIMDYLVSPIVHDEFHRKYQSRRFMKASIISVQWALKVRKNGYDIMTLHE
T6 sequence (P20486 whole entry partner): as the sequence (P20486 whole entry partner) above

Cln2-Cdk1 = molecular target: T7, Cln2-Cdk1 (Saccharomyces cerevisiae, UniProt P00546+P20438)
T7 construct: We purified the four cyclin-Cdk1 complexes from yeast; made in house; host or cells: S. cerevisiae strain DMY305 (galactose-induced); Cks1 from bacteria
T7 sequence (P00546 2-298 limits assumed): as the sequence (P00546 2-298 limits assumed) above
T7 sequence (P20438 whole entry partner): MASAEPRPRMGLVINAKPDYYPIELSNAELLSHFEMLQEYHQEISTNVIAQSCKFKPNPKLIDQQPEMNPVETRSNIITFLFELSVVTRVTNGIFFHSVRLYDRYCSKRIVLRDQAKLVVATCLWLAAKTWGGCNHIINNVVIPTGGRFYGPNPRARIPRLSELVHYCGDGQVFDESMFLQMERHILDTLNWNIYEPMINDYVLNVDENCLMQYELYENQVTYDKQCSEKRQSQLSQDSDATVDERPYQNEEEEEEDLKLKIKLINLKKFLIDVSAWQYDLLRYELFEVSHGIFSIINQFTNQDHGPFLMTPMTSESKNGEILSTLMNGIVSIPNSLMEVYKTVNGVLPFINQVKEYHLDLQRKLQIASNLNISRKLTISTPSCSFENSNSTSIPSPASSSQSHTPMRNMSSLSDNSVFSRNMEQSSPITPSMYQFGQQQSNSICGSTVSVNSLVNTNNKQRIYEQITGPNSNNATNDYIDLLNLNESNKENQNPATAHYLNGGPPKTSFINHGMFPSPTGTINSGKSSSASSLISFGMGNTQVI
T7 sequence (P20486 whole entry partner): as the sequence (P20486 whole entry partner) above

| Molecule | kcat/KM, Clb2hpm (Clb2hpm-Cdk1) | kcat/KM, Clb5hpm (Clb5hpm-Cdk1) | kcat/KM, Clb3hpm (Clb3hpm-Cdk1) | kcat/KM, Clb3 (Clb3-Cdk1) | kcat/KM, Clb5 (Clb5-Cdk1) | kcat/KM, Clb2 (Clb2-Cdk1) | kcat/KM, Cln2 (Cln2-Cdk1) |
| --- | --- | --- | --- | --- | --- | --- | --- |
| TOS4: putative transcription factor, tested as Cdk1 substrate (protein, UniProt Q06266 1-489, looked up) Protein TOS4: MSSQFPSSPYRTVDPYSPPNYKQQPNCPSSNYEKAGKTASESIGNFGKGDYPTPFPSSSIGRVSSPVRSNKVDAIPSSPAFPGQLAETSPKFSSKLSSPSRHTRVINAELDPSKISTITVGRNSSQCDVALCKNKFISRVHASITYLPQTNEVKIHCFSMNGLIVTYRKQFDCYQLKDTMNNNNRAYRLVPRFSNEKCVKEIQDEGGFINFTLEEGDTVYMTYYKGIMLDFRQVLLRISLKEKNSSSEPLRFEKKAEFESESETKHMGSIRKHPLIFTDTSMDRPKKILKDSNKISIGSDSGVAERMLNHFLNSKSSPLSSVSSVDHEEQTLRQDSLSSDKNPMTMKKPKLNKRVLPSKPKKSVKENLDELSRRNIDVMHLQHILTNHLAFANVQQTPLFQLQQVNSQISELSRDELRSILSDAKCVGVIYRHGKDAAGKPLDEEYFYDLENDDDYERRNLVSSLKGGRTGLRSCRRTHKQYFWKKPAK | 2.136 relative units | 0.593 relative units | 2.397 relative units | 8.484 relative units | 0.502 relative units | 2.373 relative units | 0.708 relative units |
| SWI6: cell cycle-related transcription factor, tested as Cdk1 substrate (protein, UniProt P09959 1-803, looked up) Regulatory protein SWI6: MALEEVVRYLGPHNEIPLTLTRDSETGHFLLKHFLPILQQYHDTGNINETNPDSFPTDEERNKLLAHYGIAVNTDDRGELWIELEKCLQLLNMLNLFGLFQDAFEFEEPETDQDEEDPSHSKLPENKTKSENSKDNISSKRINNLQDMSLDSDAHRELGSPLKKLKIDTSVIDAESDSTPNTARGKPNDDINKGPSGDNENNGTDDNDRTAGPIITFTHDLTSDFLSSPLKIMKALPSPVVNDNEQKMKLEAFLQRLLFPEIQEMPTSLNNDSSNRNSEGGSSNQQQQHVSFDSLLQEVNDAFPNTQLNLNIPVDEHGNTPLHWLTSIANLELVKHLVKHGSNRLYGDNMGESCLVKAVKSVNNYDSGTFEALLDYLYPCLILEDSMNRTILHHIIITSGMTGCSAAAKYYLDILMGWIVKKQNRPIQSGTNEKESKPNDKNGERKDSILENLDLKWIIANMLNAQDSNGDTCLNIAARLGNISIVDALLDYGADPFIANKSGLRPVDFGAGTSKLQNTNGGDENSKMVSKGDYDGQKNGKAKKIRSQLLKNPPETTSLINDVQNLLNSISKDYENETVQYNEKLEKLHKELNEQREELANSREQLANVKQLKDEYSLMQEQLTNLKAGIEEEEESFREESKKLGIIADESSGIDWDSSEYDADEPFKVEFLSDFLEDKLQKNYEGDISKLLEAESKEQIMEQIRNQLPAEKIQSMLPPTVLLKARINAYKRNDKHLTNVLDTISTKQSELENKFRRVLSLCLKIDENKVDNMLDGLLQAISSEDPQDIDTDEMQDFLKKHAS | 0.481 relative units | 0.058 relative units | 0.075 relative units | 0.105 relative units | 0.118 relative units | 0.412 relative units | 0.004 relative units |
| XBP1: purified yeast protein tested as Cdk1 substrate (protein, UniProt P40489 1-647, looked up) Transcriptional repressor XBP1: MKYPAFSINSDTVHLTDNPLDDYQRLYLVSVLDRDSPPASFSAGLNIRKVNYKSSIAAQFTHPNFIISARDAGNGEEAAAQNVLNCFEYQFPNLQTIQSLVHEQTLLSQLASSATPHSALHLHDKNILMGKIILPSRSNKTPVSASPTKQEKKALSTASRENATSSLTKNQQFKLTKMDHNLINDKLINPNNCVIWSHDSGYVFMTGIWRLYQDVMKGLINLPRGDSVSTSQQQFFCKAEFEKILSFCFYNHSSFTSEESSSVLLSSSTSSPPKRRTSTGSTFLDANASSSSTSSTQANNYIDFHWNNIKPELRDLICQSYKDFLINELGPDQIDLPNLNPANFTKRIRGGYIKIQGTWLPMEISRLLCLRFCFPIRYFLVPIFGPDFPKDCESWYLAHQNVTFASSTTGAGAATAATAAANTSTNFTSTAVARPRQKPRPRPRQRSTSMSHSKAQKLVIEDALPSFDSFVENLGLSSNDKNFIKKNSKRQKSSTYTSQTSSPIGPRDPTVQILSNLASFYNTHGHRYSYPGNIYIPQQRYSLPPPNQLSSPQRQLNYTYDHIHPVPSQYQSPRHYNVPSSPIAPAPPTFPQPYGDDHYHFLKYASEVYKQQNQRPAHNTNTNMDTSFSPRANNSLNNFKFKTNSKQ | 0.084 relative units | 0.007 relative units | 0.013 relative units | 0.065 relative units | 0.020 relative units | 0.103 relative units | 0.200 relative units |
| WHI5: repressor of the G1-specific SBF transcription factor, tested as Cdk1 substrate (protein, UniProt Q12416 1-295, looked up) G1-specific transcriptional …: MSLRTPKRSRTSDEQEQEQEQEQVQNPDTHVNNEHQQRPGPTTLLSTPVRLKNGFGTPSPPSPPGITKSITKSRRRPSTTSLQGIFMSPVNKRRVGITAHGRVYDHNDDGHESESEDDENEEENENQKKYDGHVSMPLLPPTTPKSRRSEVFLSPSPRLRSPPTAARRSTGERPIREISHTLRTRLNYALVKLQNGWTDKTLPELETELAPAVQTPPRRYHNRFPDSADAGTSAHTAFLQALGGHPPREEATAVETLMLLSSPTKKQQHRPVPATSAGEPTDETEPESDTEVETS | 0.027 relative units | 0.001 relative units | 0.006 relative units | 0.033 relative units | 0.016 relative units | 0.046 relative units | 0.283 relative units |
| SWI5: purified yeast protein tested as Cdk1 substrate (protein, UniProt P08153 1-709, looked up) Transcriptional factor SWI5: MDTSNSWFDASKVQSLNFDLQTNSYYSNARGSDPSSYAIEGEYKTLATDDLGNILNLNYGETNEVIMNEINDLNLPLGPLSDEKSVKVSTFSELIGNDWQSMNFDLENNSREVTLNATSLLNENRLNQDSGMTVYQKTMSDKPHDEKKISMADNLLSTINKSEINKGFDRNLGELLLQQQQELREQLRAQQEANKKLELELKQTQYKQQQLQATLENSDGPQFLSPKRKISPASENVEDVYANSLSPMISPPMSNTSFTGSPSRRNNRQKYCLQRKNSSGTVGPLCFQELNEGFNDSLISPKKIRSNPNENLSSKTKFITPFTPKSRVSSATSNSANITPNNLRLDFKINVEDQESEYSEKPLGLGIELLGKPGPSPTKSVSLKSASVDIMPTIPGSVNNTPSVNKVSLSSSYIDQYTPRGKQLHFSSISENALGINAATPHLKPPSQQARHREGVFNDLDPNVLTKNTDNEGDDNEENEPESRFVISETPSPVLKSQSKYEGRSPQFGTHIKEINTYTTNSPSKITRKLTTLPRGSIDKYVKEMPDKTFECLFPGCTKTFKRRYNIRSHIQTHLEDRPYSCDHPGCDKAFVRNHDLIRHKKSHQEKAYACPCGKKFNREDALVVHRSRMICSGGKKYENVVIKRSPRKRGRPRKDGTSSVSSSPIKENINKDHNGQLMFKLEDQLRRERSYDGNGTGIMVSPMKTNQR | 1.387 relative units | 0.172 relative units | 0.207 relative units | 1.686 relative units | 0.475 relative units | 2.961 relative units | 0.178 relative units |
